# According to patent US20200291444A1, “Macrocyclisation Tags” (Oxford University Innovation LTD, priority 2017, published 2020):
# What was measured:
# [1] = test system: CC[C@H](C)[C@H](N)C(=O)N[C@@H](Cc1c[nH]c2ccccc12)C(=O)NCC(=O)N[C@H](C(=O)NCC(=O)N[C@@H](CS)C(=O)N[C@@H](CC(N)=O)C(=O)N1CCC[C@H]1C(=O)N[C@@H](Cc1c[nH]c2ccccc12)C(=O)N[C@H](C(=O)N[C@@H](C)C(=O)N[C@@H](CCC(=O)O)C(=O)N[C@@H](Cc1c[nH]cn1)C(=O)N[C@H](C(=O)N[C@@H](CC(=O)O)C(=O)N[C@@H](CCC(N)=O)C(=O)N[C@H](C(=O)N[C@@H](CC(C)C)C(=O)N[C@@H](C)C(=O)N[C@@H](CO)C(=O)NCC(=O)N[C@@H](CC(N)=O)C(=O)N[C@@H](CC(=O)O)C(=O)N[C@H](C(=O)N[C@@H](CS)C(=O)O)[C@@H](C)CC)[C@@H](C)O)C(C)C)[C@@H](C)O)[C@@H](C)CC; experiment: GmPOPB kinetic assays (LC-MS); assay type: biochemical, Galerina marginata; details: other: room temperature; pH 8.0
# Description: (§1) Comparison between distinct GmPOPB substrates was performed in 50 mM Tris pH 8.0, 50 mM NaCl, 10 mM DTT with varying concentrations of substrates at room temperature. All reactions were performed in duplicates. Reactions were started by adding GmPOPB (50 nM for GmAMA1_C6S, 1 μM for the 13mer and 14mer, and 20 nM for other substrates) to the assay mixture containing buffer and peptide. Reactions were quenched at several time points by adding 50 μL reaction mixture to 20 μL 6% TFA. Reactants were separated from products for quantification by injecting 50 μL of each quenched time point mix onto a ZORBAX SB-C18, 5 μm, 9.4×50 mm (Agilent) column connected to an Agilent LC-MS (G6130B Single Quad, Agilent Technologies). Reactants were separated from products using a gradient from H2O containing 0.1% TFA or 0.1% formic acid and 5% acetonitrile to 50% acetonitrile, at 1.5 ml/min for 8 min. Peaks with ultra violet (UV) absorbance at 220 and 280 nm were integrated, the area of peaks corresponding to reactant and products was used to calculate the percentage of product formed after a correction for differences in the extinction coefficient of each peptide was applied (ε280-25mer=11,000M-1 cm-1, ε220-25mer=46,000M-1 cm-1, ε280-cyclic=5500M-1 cm-1, ε220-cyclic=34,000M-1 cm-1, and ε280-tail=5500M-1 cm-1). The sum of product+substrate was assumed equal to the total initial amount of substrate, product converted from % to concentration. This value was divided by concentration of enzyme present to yield v/Et (min-1). When enzyme mutants and peptides containing alanine in the core region were tested for activity, higher concentrations 5 μM enzyme and 100 μM substrate were incubated for 1 and 18 h at room temperature. For progress curves with the 35mer substrate, measurements were triplicate and quantification relied on ion counts from mass spectrometry. […] Authentic macrocyclic peptide was quantified by UV absorbance. Data showing products formed after 1 and 16 h with truncated peptides were performed twice. […] Kinetic data were fitted to a Michaelis-Menten equation using GraphPad Prism, and values reported are average and standard error of the mean.
# [2] = test system: 25mer and 35mer substrates; experiment: Activity of GmPOPB mutants with 25mer and 35mer substrates; assay type: biochemical, Galerina marginata; details: 5 μM GmPOPB, 24 h (16 h elsewhere in the source)
# Description: as §1, with “Reactions were started by adding GmPOPB (50 nM for GmAMA1_C6S, 1 μM for the 13mer and 14mer, and 20 nM for other substrates) to the assay mixture containing buffer and peptide.” left out, “When enzyme mutants and peptides containing alanine in the core region were tested for activity, higher concentrations 5 μM enzyme and 100 μM substrate were incubated for 1 and 18 h at room temperature.” left out, “mean. […]” for “mean.”
# To study other residues involved in hydrolysis and macrocyclisation, additional mutants H698N, R663A, R663Q, R663K, and W695Δ (deletion) were generated. […] H698N was insoluble and not evaluated. […]
# [3] = molecular target: T1, presegetalin B1
# T1 chain: GVAWAFQAKDVENASAPV
molecule,measurement,setting,value
GmPOPB (Galerina marginata CBS 339.88),Km,[1],50 µM
same,kcat,[1],0.3 s⁻¹
S577A: GmPOPB catalytic triad mutant (protein) MSSVTWAPGNYPSTRRSDHVDTYQSASKGEVPVPDPYQWLEESTDEVDKWTTAQADLAQSYLDQNADIQKLAEKFRASRNYAKFSAPTLLDDGHWYWFYNRGLQSQSVLYRSKEPALPDFSKGDDNVGDVFFDPNVLAADGSAGMVLCKFSPDGKFFAYAVSHLGGDYSTIYVRSTSSPLSQASVAQGVDGRLSDEVKWFKFSTIIWTKDSKGFLYQRYPARERHEGTRSDRNAMMCYHKVGTTQEEDIIVYQDNEHPEWIYGADTSEDGKYLYLYQFKDTSKKNLLWVAELDEDGVKSGIHWRKVVNEYAADYNIITNHGSLVYIKTNLNAPQYKVITIDLSKDEPEIRDFIPEEKDAKLAQVNCANEEYFVAIYKRNVKDEIYLYSKAGVQLTRLAPDFVGAASIANRQKQTHFFLTLSGFNTPGTIARYDFTAPETQRFSILRTTKVNELDPDDFESTQVWYESKDGTKIPMFIVRHKSTKFDGTAAAIQYGYGGFATSADPFFSPIILTFLQTYGAIFAVPSIRGGGEFGEEWHKGGRRETKVNTFDDFIAAAQFLVKNKYAAPGKVAINGAANGGLLVMGSIVRAPEGTFGAAVPEGGVADLLKFHKFTGGQAWISEYGNPSIPEEFDYIYPLSPVHNVRTDKVMPATLITVNIGDGRVVPMHSFKFIATLQHNVPQNPHPLLIKIDKSWLGHGMGKPTDKNVKDAADKWGFIARALGLELKTVE,activity of GmPOPB mutant (in words),[2],inactive
"D661A: GmPOPB catalytic triad mutant (protein, UniProt H2E7Q8 1-730, looked up, variant D661A) Dual function …: MSSVTWAPGNYPSTRRSDHVDTYQSASKGEVPVPDPYQWLEESTDEVDKWTTAQADLAQSYLDQNADIQKLAEKFRASRNYAKFSAPTLLDDGHWYWFYNRGLQSQSVLYRSKEPALPDFSKGDDNVGDVFFDPNVLAADGSAGMVLCKFSPDGKFFAYAVSHLGGDYSTIYVRSTSSPLSQASVAQGVDGRLSDEVKWFKFSTIIWTKDSKGFLYQRYPARERHEGTRSDRNAMMCYHKVGTTQEEDIIVYQDNEHPEWIYGADTSEDGKYLYLYQFKDTSKKNLLWVAELDEDGVKSGIHWRKVVNEYAADYNIITNHGSLVYIKTNLNAPQYKVITIDLSKDEPEIRDFIPEEKDAKLAQVNCANEEYFVAIYKRNVKDEIYLYSKAGVQLTRLAPDFVGAASIANRQKQTHFFLTLSGFNTPGTIARYDFTAPETQRFSILRTTKVNELDPDDFESTQVWYESKDGTKIPMFIVRHKSTKFDGTAAAIQYGYGGFATSADPFFSPIILTFLQTYGAIFAVPSIRGGGEFGEEWHKGGRRETKVNTFDDFIAAAQFLVKNKYAAPGKVAINGASNGGLLVMGSIVRAPEGTFGAAVPEGGVADLLKFHKFTGGQAWISEYGNPSIPEEFDYIYPLSPVHNVRTDKVMPATLITVNIGAGRVVPMHSFKFIATLQHNVPQNPHPLLIKIDKSWLGHGMGKPTDKNVKDAADKWGFIARALGLELKTVE",activity of GmPOPB mutant (in words),[2],inactive
"H698A: GmPOPB catalytic triad mutant (protein, UniProt H2E7Q8 1-730, looked up, variant H698A) Dual function …: MSSVTWAPGNYPSTRRSDHVDTYQSASKGEVPVPDPYQWLEESTDEVDKWTTAQADLAQSYLDQNADIQKLAEKFRASRNYAKFSAPTLLDDGHWYWFYNRGLQSQSVLYRSKEPALPDFSKGDDNVGDVFFDPNVLAADGSAGMVLCKFSPDGKFFAYAVSHLGGDYSTIYVRSTSSPLSQASVAQGVDGRLSDEVKWFKFSTIIWTKDSKGFLYQRYPARERHEGTRSDRNAMMCYHKVGTTQEEDIIVYQDNEHPEWIYGADTSEDGKYLYLYQFKDTSKKNLLWVAELDEDGVKSGIHWRKVVNEYAADYNIITNHGSLVYIKTNLNAPQYKVITIDLSKDEPEIRDFIPEEKDAKLAQVNCANEEYFVAIYKRNVKDEIYLYSKAGVQLTRLAPDFVGAASIANRQKQTHFFLTLSGFNTPGTIARYDFTAPETQRFSILRTTKVNELDPDDFESTQVWYESKDGTKIPMFIVRHKSTKFDGTAAAIQYGYGGFATSADPFFSPIILTFLQTYGAIFAVPSIRGGGEFGEEWHKGGRRETKVNTFDDFIAAAQFLVKNKYAAPGKVAINGASNGGLLVMGSIVRAPEGTFGAAVPEGGVADLLKFHKFTGGQAWISEYGNPSIPEEFDYIYPLSPVHNVRTDKVMPATLITVNIGDGRVVPMHSFKFIATLQHNVPQNPHPLLIKIDKSWLGAGMGKPTDKNVKDAADKWGFIARALGLELKTVE",activity of GmPOPB mutant (in words),[2],inactive
"PCY1 (Saponaria vaccaria), wild type (protein) MATSGFSKPLHYPPVRRDETVVDDYFGVKVADPYRWLEDPNSEETKEFVDNQEKLANSVLEECELIDKFKQKIIDFVNFPRCGVPFRRANKYFHFYNSGLQAQNVFQMQDDLDGKPEVLYDPNLREGGRSGLSLYSVSEDAKYFAFGIHSGLTEWVTIKILKTEDRSYLPDTLEWVKFSPAIWTHDNKGFFYCPYPPLKEGEDHMTRSAVNQEARYHFLGTDQSEDILLWRDLENPAHHLKCQITDDGKYFLLYILDGCDDANKVYCLDLTKLPNGLESFRGREDSAPFMKLIDSFDASYTAIANDGSVFTFQTNKDAPRKKLVRVDLNNPSVWTDLVPESKKDLLESAHAVNENQLILRYLSDVKHVLEIRDLESGALQHRLPIDIGSVDGITARRRDSVVFFKFTSILTPGIVYQCDLKNDPTQLKIFRESVVPDFDRSEFEVKQVFVPSKDGTKIPIFIAARKGISLDGSHPCEMHGYGGFGINMMPTFSASRIVFLKHLGGVFCLANIRGGGEYGEEWHKAGFRDKKQNVFDDFISAAEYLISSGYTKARRVAIEGGSNGGLLVAACINQRPDLFGCAEANCGVMDMLRFHKFTLGYLWTGDYGCSDKEEEFKWLIKYSPIHNVRRPWEQPGNEETQYPATMILTADHDDRVVPLHSFKLLATMQHVLCTSLEDSPQKNPIIARIQRKAAHYGRATMTQIAEVADRYGFMAKALEAPWID","Km (column head printed as 'Kin (µM)'), single injection kinetic ITC",[3],0.25 µM
same,"Km (column head printed as 'Kin (µM)'), steady-state kinetics, LC/MS (UV280 nM)",[3],0.45 µM
